For test [1], the target named is T1, biotinylated mature GDF-8 dimer (human, UniProt O14793 267-375, biotin on amine groups (lysine residues and/or amino termini); biotin:GDF-8 molar ratio between 0:1 and 3:1).
T1 construct: Captured on streptavidin-coated plates; also called Biotinylated GDF-8; biotinylated mature GDF-8 protein
Description: ELISA standard curve parameters of the rat serum experiment; biotinylated GDF-8 on streptavidin plate.

The target of test [2] is T1, biotinylated mature GDF-8 dimer. Description: ELISA standard curve, 4-parameter logistic fit; c = concentration resulting in signal at approximately midpoint between a and d; biotinylated GDF-8 on streptavidin plate. How it is done: To detect MYO-029 in a human serum sample, an ELISA was performed as follows. Streptavidin was adsorbed by first adding streptavidin coating solution (100 μL/well) (5 μg/mL ImmunoPure streptavidin (Pierce) in 0.1 M Carbonate/Bicarbonate buffer, pH 9.6) to the wells of a 96 well plate (high binding flat-bottom microtiter) (Costar, Cat. No. 3590). The plate was covered with sealing film and incubated at 2-8° C. overnight. Using an automatic plate washer, the plate was washed four times (4×) with THST buffer (300 μL/well) (50 mM Tris-HCl, pH 8.0, containing 1.0 mM glycine, 0.5 M NaCl, and 0.05% v/v/ Tween 20® (J. T. Baker)), reversing the orientation of the plate after the second wash. To block, 200 μL of blocking buffer (1% bovine albumin (Sigma), 0.02% sodium azide in PBS (Dulbeccos)) was added to each well. The plate was covered with sealing film and incubated for 1-2 hours at room temperature and then washed as above. […]
A MYO-029 working calibrator solution was prepared of 1080 ng/mL MYO-029 in normal human serum (Bioreclamation, Inc.) The 1080 ng/mL stock was fist diluted 8-fold in assay buffer (THST buffer+4% nonfat dry milk), and then a series of 1.5 fold dilutions of the resulting 135 ng/mL standard were prepared in THST+4% nonfat dry milk+12.5% normal human serum to yield the calibration standard concentrations. […] For human serum, the minimum dilution determined was 1:8. […]

B1: MYO-029 (antibody, V domains shown)
VH: QVQLVQSGAEVKKPGASVKVSCKASGYTFTSYYMHWVRQAPGQGLEWMGIINPSGGSTSYAQKFQGRVTMTRDTSTSTVYMELSSLRSEDTAVYYCARDENWGFDPWGQGTLVTVSS
VL: SYELTQPPSVSVSPGQTATITCSGHALGDKFVSWYQQGSGQSPVLVIYDDTQRPSGIPGRFSGSNSGNTATLTISGTQAMDEADYFCQAWDSSFVFGGGTKVTVL
notes: also called fully human antibody
Regarding B1, the EC50 (commonly the concentration giving half of the maximal effect) in test [1] amounted to 0.0587 µg/mL; in test [2], 0.0728 µg/mL.

(Values after US20060240487A1 (published 2006).)
